# B1: TPR t1 (parent)
# chain: GACCAAUCUGCCCUCAGAGCUCGAGAACAUCUUCGGAUGCAGAGGAGGCAGGCUUCGGUGGCGCGAUAGCGCCAACGUCCUCAACCUCCAAUGCAUCCCACCACAUGAUGAUGCCUGAAGAGCCUUGGUUUUUUG
# Variants of: B1
# Assay: polymerase ribozyme fitness, log enrichment relative to wild type (log ratio); higher = more active; in vitro selection for triplet polymerase activity
# Method in brief: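 Genotype fitness is the logarithm of its enrichment divided by wild-type enrichment, using inverse-variance-weighted averages of replicates. That logarithm is base 2. Enrichment was measured by Illumina sequencing of input and output libraries from one triplicate in vitro selection round, with frozen incubation at −7 °C, on PCR-built, transcribed mutant libraries of each subunit of a heterodimeric triplet polymerase ribozyme, retaining genotypes with ≥10 input reads and ≥1 read per output.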
row,Variant,polymerase ribozyme fitness (log ratio)
1,C8G G63A A83G C85A G122A,-1.28
2,C8G U9G,0.256
3,U9A G110C U130A,-4.06
4,C8G C13G C98U,-0.112
5,C8G U14C G45A A84G,-0.446
6,U9C A50U C94U,-2.36
7,C8G G39A G63U A84U,-1.03
8,C8U C99U,-2.32
9,C8G U92A,-1.78
10,C8G G52U,0.359
11,C8G U14G C53U G71A,-0.0624
12,C8G G60U C102U,-0.641
13,C8U A29U U59C A121G,-1.03
14,C8U G48A A50G,-1.52
15,U9C A41U C70A U125A,-4.15
16,U9A G39C,-0.517
17,C8G C72A C102A,-1.22
18,C8G C31A A50C G113U,-5.53
19,C8G G17U G48A G57U U112G C114U,-5.14
20,U9A C53U,0.789
21,U9C A26G C34A G39A C97A C115A A121G,-1.6
22,C8U C13U A37C C70U A119G,-0.292
23,C8G C56G G63C U126C,-3.33
24,U9A G10C C13U C40A C80A G122A,-3.43

row,Variant,polymerase ribozyme fitness (log ratio)
1,C8G G39A G117U U132A,0.363
2,C8U C62U C79U C82U A91U A105G C123G U129G U131G,-5.84
3,C8U,0.471
4,U9A C73G,-0.255
5,C8G G48U C72A,0.0646
6,C8G G63A C73U U78C C123G,0.795
7,C8G C82U C97U G127C,-0.232
8,C8G G36U,0.298
9,U9C C28U G36U A121G,0.0298
10,U9A U55G C99U,-2.44
11,U9C A37U A66C,-1.35
12,C8U C15U U32C G71U C99U,-4.38
13,C8U U9A A18U C76G,-1.89
14,C8U C85U C124G,2.05
15,C8U C49U G71C G117U G120A C124A,-1.83
16,U9A A100U,0.21
17,U9C A37C C94U G110A,-1.17
18,C8U G93C C114U,-1.54
19,C8G C12G C73U A83G G113C,-2.3
20,C8U G93C,0.0241
21,U9A G51A U112A,-2.45
22,C8U C22G U96A,-2.59
23,U9C C12G U55C A83G G93A C102U,-5.25
24,C8U G17A,-2.57

row,Variant,polymerase ribozyme fitness (log ratio)
1,C8G C22U A43G C88U C97A C99U C101U C102G G110C,-6.9
2,C8G C11U G63U C124A,1.09
3,C8U G117U U126C,-3.25
4,C8G G57A U81A G120A,0.685
5,U9A A43U C70U C82A U87C U131A,-1.6
6,U9A A46U G63C C82G C86A,-1.25
7,C8G U96C C104U,0.578
8,C8G G58A U96A,0.339
9,U9C A83C,0.121
10,U9A A16U A24C U33G G36A C115U,-7.16
11,U9A A24G G42A G52C C72G,-3.17
12,C8G G48U G113A U126C,-0.687
13,C8G G110C,-2.74
14,C8G G117U,-1.44
15,C8G G117C,-0.943
16,C8G C80G,-4.19
17,C8G G44C C49A,0.0557
18,C8G C15U C49A G93C,-1.27
19,C8G C82A C97A,-4.13
20,U9A C13G A26C G63C G110A,-5.86
21,U9C C15G A43U,-1.5
22,C8U A24G G48C C115G,-3.87
23,C8G C104G U116C A121U G122U U129C,-7.72
24,U9A C64U G117A,0.77

row,Variant,polymerase ribozyme fitness (log ratio)
1,C8G C13A G52C U92A,-3.15
2,U9A A26U C40G G58C U125G,-4.12
3,U9A A84U A121C,2.06
4,C8U G52U C56A G77U A121U,1.55
5,U9A G71A C73A C85A U116A,-3.81
6,C8G U30C C70U G113C U133A,-5.26
7,C8U G60C G61C C72A C101U,-1.33
8,C8G G42A,-0.64
9,C8G G35C U131A,-5.09
10,C8U A100C G117A,-1.87
11,C8U U129G U133A,-1.94
12,U9A A27U C28A U78C U96A U106A G117A,-4.8
13,U9A C20G U96G C124U,-3.29
14,C8U U33A,-3.59
15,C8G C15G,-1.24
16,C8U G36A A66C A84C G117A,-3.32
17,C8G G23A G61U U109A U112A,-6.91
18,U9A U32A C62U C114A,-4.44
19,U9C A43G C89U,-0.469
20,C8U C12G U14G G60A U78G G113A,-3.01
21,U9C A27G C56A U92A,-3.57
22,C8U G58U A111G U126C,-1.57
23,C8G C101A,-0.236
24,C8G C20G G63A C124G,-4.75

row,Variant,polymerase ribozyme fitness (log ratio)
1,C8G U38C A50U C115A,0.783
2,C8U C62A C98U,-1.15
3,C8G C86A A105C,-1.39
4,C8G G48A G63C C72U C88A,-4.05
5,C8G G61C,-1.09
6,C8G G61A,0.403
7,C8G U78C C85U G113U U132A,-2.41
8,C8G C114U C123A,-0.55
9,C8G U9G C12A G69A C88G U132A,-4.01
10,C8G G17U U59G C115G A118G,0.49
11,C8U G51A C56A G120U,-3.67
12,U9C A43C A46G,-1.4
13,C8G G10C U55G A91C,-1.21
14,U9A A37U,0.568
15,U9A A37U A41G,0.164
16,U9C A29G G58A A90U G110A,-4.22
17,U9A G120C,1.21
18,C8U A74G C123G,1.71
19,U9A G39C C62A U78A U87G G110U,-5.8
20,U9A G63C A84U G120A,0.752
21,C8U A24G G36A G44U,-2.87
22,U9A U87A,1.16
23,C8U G61A,0.644
24,C8U U38G G51A,-3.4

row,Variant,polymerase ribozyme fitness (log ratio)
1,C8U C73A,1.41
2,U9A C13U G63A C88A G113C U129G U134G,-3.06
3,C8U G42A C88U,-0.816
4,C8U C13A A18C U54G C70U,-3.71
5,C8U C124A,2.27
6,C8U C124U,1.6
7,C8U C28G U109A,-4.64
8,U9A U78A,-0.206
9,C8G U55A,0.0363
10,C8U U21C U87G G122A,-0.0757
11,U9A C86G,0.0417
12,C8U C73A C123A,2.02
13,C8U C22G G45A G47C A100U,-4.96
14,C8G G44C C70A A84C C115U,-5.29
15,C8G G17U,-0.274
16,C8U C12U C64A C123U,-4.54
17,C8U G120U,1.14
18,C8U C97U U116C,-0.891
19,U9A A46G C85U U125A,-1.94
20,U9A C56A,0.00188
21,U9A C56U,0.248
22,C8U C12G,0.586
23,C8U C15U G36A A68G C97U G120A,-1.91
24,U9A C20A,-2.35

row,Variant,polymerase ribozyme fitness (log ratio)
1,C8U U96G G110U,-2.02
2,C8G G36A G44A,-1.23
3,C8G G48U G60U C85U U92A,-3.06
4,U9C C15A G44U G60C A91U,-1.82
5,C8U A29G A43G,-3.05
6,C8U C104G U106A C124G,-3.63
7,C8U A119G U126G G127U,-0.0945
8,U9A C13U C79U C114A,0.44
9,C8G C15A G39A G52C U59A C89A G117A,-2.57
10,C8G G19U U125A,-2.65
11,C8U U92A,-2.72
12,C8G C20U A84U G122U,-0.907
13,U9A C13G U32A G39C A41U G60C C88U G117A,-7.75
14,C8G G71A C89A C97U G120C,-1.24
15,C8G C73U A91G C101G,-2.3
16,U9A A50G C88G A108U,-4.75
17,C8U G57U U112A,1.64
18,C8U C20U A37U A43U,-2.77
19,U9A C13G C20A A43G A95G,-4.1
20,C8G G39U C80A,-2.47
21,U9C C15A G45C G57C U59A,0.541
22,C8U U32G C101A C115G,-5.52
23,C8G G63U,-0.674

# Reference: the RNAGym collection of RNA variant scans (doi:10.1073/pnas.2313332121)
